Assay [1] has as its target T1, recombinant human LILRB2-His (human, UniProt Q8N423 22-461, limits assumed).
T1 construct: Bought protein; also called LILRB2 protein
Put plainly: MSD ELISA, coated antigen, transfection supernatant. Here is the method:
(§1) To confirm binding to human LILRB1 and human LILRB2, transfection supernatants (obtained in Example 2) were evaluated for binding by ELISA. The conditioned media from these transient transfections were assayed for human IgG concentration by AlphaLISA® immunoassay (PerkinElmer, No. AL310C) (Table 4). A plate-based MSD ELISA was performed in which human LILRB1-His or LILRB2-His was immobilized, and binding of transfection supernatants of humanized mAb variants was detected via an anti-human IgG Sulfo-tag-labeled secondary antibody. The IgG1 version of the parental rabbit/human chimera (designated B21A1) transfection served as the benchmark EC₅₀ positive control.
(§2) Recombinant human and cynomolgus LILRB1 proteins (R&D Systems, No. 8989-T2-050; ACROBiosystems, No. CDJ-C52H3) and recombinant human and cynomolgus LILRB2 proteins (ACROBiosystems, No. LI2-H5220; No. L12-C52H3) were diluted in PBS to 4 μg/mL and added to a multi-array 384-well high-binding plates (MSD, No. L21XA4) at 10 μL/well and incubated at 4° C. overnight. The plates were washed several times with Wash Buffer (0.05% Tween® 20 in PBS), using a microplate washer and then blocked with 70 μL/well of 5% BSA in PBS for 1 hour (h) at room temperature (RT) with shaking at 700 rpm. After blocking, 20 μL/well of anti-LILRB2/LILRB1 antibodies or isotype control were added to the plates, and the plates were sealed and incubated for 2 h at RT with shaking at 700 rpm. After primary antibody binding, plates were washed five times with 70 μL/well of Wash Buffer (0.05% Tween® 20 in PBS) using a microplate washer. Secondary detection antibody (SULFO-TAG™-labeled goat anti-human IgG antibody (MSD, No. R32AJ-1)) was diluted to 4 μg/mL in assay diluent (1% BSA in PBS) and 10 μL/well was added to plates and incubated at RT protected from light for 1 h, with shaking at 700 rpm. Following incubation, plates were washed five times with Wash Buffer, using a microplate washer. After removal of the final wash, 35 μL/well of MSD Gold Read Buffer B (MSD, No. R60AM-4) was added to all wells using a Multidrop combo washer/dispenser, and plates were read using MESO Sector 600MM instrument (MSD) within 5 minutes (min) after addition of Read Buffer. Signals as counts per minute (cpm) were recorded.

Assay [2] addresses T2, recombinant human LILRB1-His (human, UniProt Q8NHL6 24-458).
T2 construct: Bought protein; also called LILRB1 protein
The description is as above. Here is the method:
as §1, §2

The values below come from US20250002577A1 (ONCORESPONSE, published 2025).

As a reminder, the EC50 is the concentration at which the effect is half-maximal.

T2 sequence (Q8NHL6 24-458 limits assumed): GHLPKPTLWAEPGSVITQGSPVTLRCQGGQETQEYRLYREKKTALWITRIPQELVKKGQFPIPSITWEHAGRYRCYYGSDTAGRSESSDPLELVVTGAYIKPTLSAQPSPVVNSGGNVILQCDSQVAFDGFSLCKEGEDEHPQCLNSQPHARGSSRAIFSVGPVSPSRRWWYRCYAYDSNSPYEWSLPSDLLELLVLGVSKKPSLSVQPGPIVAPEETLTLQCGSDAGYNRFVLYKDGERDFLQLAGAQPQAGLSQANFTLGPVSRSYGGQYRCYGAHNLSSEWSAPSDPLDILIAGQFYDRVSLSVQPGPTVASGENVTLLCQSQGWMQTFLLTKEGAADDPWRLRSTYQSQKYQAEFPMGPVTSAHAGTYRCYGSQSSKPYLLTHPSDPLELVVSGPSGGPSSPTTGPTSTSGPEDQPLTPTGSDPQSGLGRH
T1 sequence (Q8N423 22-461 limits assumed): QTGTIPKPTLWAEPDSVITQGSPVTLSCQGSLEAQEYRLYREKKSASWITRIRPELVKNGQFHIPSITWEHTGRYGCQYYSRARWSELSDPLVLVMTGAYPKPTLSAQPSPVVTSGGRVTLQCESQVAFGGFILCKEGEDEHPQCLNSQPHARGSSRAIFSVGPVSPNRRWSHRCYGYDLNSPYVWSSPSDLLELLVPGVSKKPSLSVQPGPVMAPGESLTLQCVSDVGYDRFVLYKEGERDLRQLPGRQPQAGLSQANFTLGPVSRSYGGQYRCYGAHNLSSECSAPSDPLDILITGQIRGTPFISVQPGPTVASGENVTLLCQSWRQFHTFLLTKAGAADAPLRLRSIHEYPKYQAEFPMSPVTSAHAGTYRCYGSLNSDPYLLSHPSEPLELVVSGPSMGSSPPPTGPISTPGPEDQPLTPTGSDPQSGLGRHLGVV

B1: B21H4-13 (antibody, human IgG4 S228P, kappa)
heavy: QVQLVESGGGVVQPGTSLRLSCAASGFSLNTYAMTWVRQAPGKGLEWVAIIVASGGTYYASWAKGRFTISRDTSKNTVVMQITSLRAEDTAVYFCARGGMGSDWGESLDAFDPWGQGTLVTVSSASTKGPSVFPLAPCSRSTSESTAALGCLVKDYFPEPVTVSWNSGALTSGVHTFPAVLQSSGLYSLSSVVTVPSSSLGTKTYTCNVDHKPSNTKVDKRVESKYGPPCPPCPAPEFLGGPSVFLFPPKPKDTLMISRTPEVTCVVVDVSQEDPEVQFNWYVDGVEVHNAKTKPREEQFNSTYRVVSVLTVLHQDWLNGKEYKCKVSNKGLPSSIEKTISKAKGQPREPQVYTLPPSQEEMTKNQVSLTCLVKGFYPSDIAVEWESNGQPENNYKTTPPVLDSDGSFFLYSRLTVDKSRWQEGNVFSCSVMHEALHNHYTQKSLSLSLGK
light: DIVMTQSPSSVSASVGDRVTITCQASGNIYSFLAWYQQKPGKAPKLLIYTASNLETGVPSRFSGSGSGTDFTLTISSLQPEDFATYYCLGGLYSSDVSYAFGGGTKVVIKRTVAAPSVFIFPPSDEQLKSGTASVVCLLNNFYPREAKVQWKVDNALQSGNSQESVTEQDSKDSTYSLSSTLTLSKADYEKHKVYACEVTHQGLSSPVTKSFNRGEC
notes: humanized IgG4/kappa, VH1+VL3; transfection supernatant
Turning to B1, the EC50 amounted to 1.01 ng/mL in assay [1] and 1.5 ng/mL in assay [2].

B2: B21H4-45 (antibody, human IgG4 S228P, kappa)
heavy: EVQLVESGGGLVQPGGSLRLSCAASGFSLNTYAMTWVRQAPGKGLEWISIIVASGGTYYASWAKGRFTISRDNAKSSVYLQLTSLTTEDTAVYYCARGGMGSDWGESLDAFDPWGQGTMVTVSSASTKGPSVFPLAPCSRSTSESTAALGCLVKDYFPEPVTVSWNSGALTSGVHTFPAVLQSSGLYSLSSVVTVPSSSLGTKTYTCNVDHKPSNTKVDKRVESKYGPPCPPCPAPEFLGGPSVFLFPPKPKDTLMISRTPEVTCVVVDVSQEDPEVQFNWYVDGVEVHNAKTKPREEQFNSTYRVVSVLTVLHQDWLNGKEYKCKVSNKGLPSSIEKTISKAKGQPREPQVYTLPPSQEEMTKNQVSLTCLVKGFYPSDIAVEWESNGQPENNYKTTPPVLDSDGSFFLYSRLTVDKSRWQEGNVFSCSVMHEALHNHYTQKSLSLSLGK
light: DIQMTQTPSTVEASVGGTVTITCQASGNIYSFLAWYQQKPGQPPKLLIYTASNLETGVPSRFSGSGSGTEYTLTISGLQSDDAATYYCLGGLYSSDVSYAFGGGTEVVVKRTVAAPSVFIFPPSDEQLKSGTASVVCLLNNFYPREAKVQWKVDNALQSGNSQESVTEQDSKDSTYSLSSTLTLSKADYEKHKVYACEVTHQGLSSPVTKSFNRGEC
notes: humanized IgG4/kappa, VH4+VL5; transfection supernatant
B2: the values for the EC50 in assay [1] and in assay [2] were 0.26 ng/mL and 4.7 ng/mL, respectively.

B3: B21A4 (antibody, human IgG4 S228P, kappa)
heavy: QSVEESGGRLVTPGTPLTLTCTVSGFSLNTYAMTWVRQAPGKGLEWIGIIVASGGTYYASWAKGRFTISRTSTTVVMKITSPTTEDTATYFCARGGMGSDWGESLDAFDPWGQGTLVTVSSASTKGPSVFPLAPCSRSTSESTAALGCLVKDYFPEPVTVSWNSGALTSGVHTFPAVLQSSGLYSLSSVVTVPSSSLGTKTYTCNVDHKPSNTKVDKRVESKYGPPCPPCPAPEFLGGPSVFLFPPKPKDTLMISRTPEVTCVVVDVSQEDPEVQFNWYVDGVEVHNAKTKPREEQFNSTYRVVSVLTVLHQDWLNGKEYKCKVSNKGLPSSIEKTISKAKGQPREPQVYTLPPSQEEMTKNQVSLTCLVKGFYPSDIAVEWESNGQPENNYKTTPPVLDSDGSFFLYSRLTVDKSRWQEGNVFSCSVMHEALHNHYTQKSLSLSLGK
light: DIVMTQTPASVEAAVGGTVTINCQASGNIYSFLAWYQQKPGQPPKLLIYTASNLETGVPSRFSGSGSGTEYTLTISGVQCDDAATYYCLGGLYSSDVSYAFGGGTEVVVKRTVAAPSVFIFPPSDEQLKSGTASVVCLLNNFYPREAKVQWKVDNALQSGNSQESVTEQDSKDSTYSLSSTLTLSKADYEKHKVYACEVTHQGLSSPVTKSFNRGEC
notes: Rabbit/human chimera, human IgG4/kappa; 3 is used here; also called B21A chimera IgG4; Clone B21A4
For B3, the EC50 is 2.63 ng/mL in assay [1] and 3.73 ng/mL in assay [2].

B4: B21H4-14 (antibody, human IgG4 S228P, kappa)
heavy: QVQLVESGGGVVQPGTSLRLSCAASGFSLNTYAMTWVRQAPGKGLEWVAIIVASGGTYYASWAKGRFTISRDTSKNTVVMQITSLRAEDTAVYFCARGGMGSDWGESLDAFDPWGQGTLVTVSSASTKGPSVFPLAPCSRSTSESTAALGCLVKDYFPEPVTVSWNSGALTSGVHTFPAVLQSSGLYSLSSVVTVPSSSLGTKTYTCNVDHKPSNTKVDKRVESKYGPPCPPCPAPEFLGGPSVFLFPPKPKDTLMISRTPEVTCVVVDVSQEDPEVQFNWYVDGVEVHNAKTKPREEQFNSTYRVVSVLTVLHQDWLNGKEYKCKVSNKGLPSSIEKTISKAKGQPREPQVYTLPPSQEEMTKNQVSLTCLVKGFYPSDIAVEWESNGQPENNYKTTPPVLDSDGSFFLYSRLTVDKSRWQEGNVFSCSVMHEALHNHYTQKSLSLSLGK
light: DVVMTQSPSTVSASVGDRVTLTCQASGNIYSFLAWYQQKPGQPPKLLIYTASNLETGVPDRFSGSGSGTDYTLTISSLQADDFATYYCLGGLYSSDVSYAFGQGTKVEIKRTVAAPSVFIFPPSDEQLKSGTASVVCLLNNFYPREAKVQWKVDNALQSGNSQESVTEQDSKDSTYSLSSTLTLSKADYEKHKVYACEVTHQGLSSPVTKSFNRGEC
notes: humanized IgG4/kappa, VH1+VL4; transfection supernatant
Regarding B4, the EC50 in assay [1] amounted to 1.46 ng/mL; in assay [2], 1.3 ng/mL.

B5: B21H4-51 (antibody, human IgG4 S228P, kappa, V domains shown)
VH: QVQLEESGGRLVQPGTSLRLSCAVSGFSLNTYAMTWVRQAPGKGLEWIGIIVASGGTYYASWAKGRFTISRDTSKNTLYLQITSLRAEDTATYFCARGGMGSDWGESLDAFDPWGQGTLVTVSS
VL: DIQMTQSPSTLSASVGDRVTITCQASGNIYSFLAWYQQKPGKAPKLLIYTASNLETGVPSRFSGSGSGTEYTLTISSLQPDDFATYYCLGGLYSSDVSYAFGPGTKVEIKR
notes: humanized IgG4/kappa, VH5+VL1; transfection supernatant
As to B5, the EC50 is 2.51 ng/mL in assay [1] and 3.88 ng/mL in assay [2].

B6: B21H4-53 (antibody, human IgG4 S228P, kappa, V domains shown)
VH: QVQLEESGGRLVQPGTSLRLSCAVSGFSLNTYAMTWVRQAPGKGLEWIGIIVASGGTYYASWAKGRFTISRDTSKNTLYLQITSLRAEDTATYFCARGGMGSDWGESLDAFDPWGQGTLVTVSS
VL: DIVMTQSPSSVSASVGDRVTITCQASGNIYSFLAWYQQKPGKAPKLLIYTASNLETGVPSRFSGSGSGTDFTLTISSLQPEDFATYYCLGGLYSSDVSYAFGGGTKVVIKR
notes: humanized IgG4/kappa, VH5+VL3; transfection supernatant
As for B6, the results for the EC50 in assay [1] and in assay [2] were 1.67 ng/mL and 4.7 ng/mL, respectively.

B7: B21H4-54 (antibody, human IgG4 S228P, kappa, V domains shown)
VH: QVQLEESGGRLVQPGTSLRLSCAVSGFSLNTYAMTWVRQAPGKGLEWIGIIVASGGTYYASWAKGRFTISRDTSKNTLYLQITSLRAEDTATYFCARGGMGSDWGESLDAFDPWGQGTLVTVSS
VL: DVVMTQSPSTVSASVGDRVTLTCQASGNIYSFLAWYQQKPGQPPKLLIYTASNLETGVPDRFSGSGSGTDYTLTISSLQADDFATYYCLGGLYSSDVSYAFGQGTKVEIKR
notes: humanized IgG4/kappa, VH5+VL4; transfection supernatant
B7: the EC50 in assay [1] was 2.75 ng/mL; in assay [2], 4.85 ng/mL.
